The values below come from the supplement of paper PMC7125110.

B1: glmS ribozyme (parent)
chain: AUAAAAGCGCCAGAACUACAGAAAUGUAGUUGACGAGGAGGAGGUUUAUCGAAUUUUCGGCGGAUGCCUCCAAA

Holding throughout (settings): with glucosamine-6-phosphate
The variants in data set [1] derive from B1. The experiment in a line: self-cleavage kobs at 160 uM GlcN6P; higher = faster cleavage; RNA array. A digest of the protocol: (§1)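 Glucosamine-6-phosphate (40 μM to 10 mM) in HEPES/KCl/Mg(OAc)2 buffer was flowed over sequenced MiSeq chips, and tiles were imaged over ~14 h. Barcoded ribozyme variants there had been transcribed in situ by E. coli RNA polymerase and were tracked through a hybridised Cy3 probe at 37 °C. One- or two-exponential decay fits to per-tile medians, normalised to baseline and to non-cleaving reference variants, gave kobs. kcat and KM came from weighted Michaelis–Menten fits across concentrations.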

Data set [2] covers variants of B1. Briefly: self-cleavage kobs at 640 uM GlcN6P; higher = faster cleavage; RNA array. In a few lines: as §1
In data set [3] the parent is B1. Briefly: self-cleavage kobs at 2500 uM GlcN6P; higher = faster cleavage; RNA array. In a few lines: as §1
In data set [4] the parent is B1. Briefly: self-cleavage kobs at 10000 uM GlcN6P; higher = faster cleavage; RNA array. A digest of the protocol:
as §1

± gives the standard error. This sample holds only a part of the variants without activity.

On to A52U U57A C68U, for which, in the data set with glucosamine-6-phosphate [1], the “self-cleavage kobs at 160 uM GlcN6P” value turned out to be 8.55e-05 ± 2.1e-05 s⁻¹. For the same variant, in the data set with glucosamine-6-phosphate [2], the “self-cleavage kobs at 640 uM GlcN6P” value worked out at 0.000196 ± 5.5e-05 s⁻¹. Moreover, in the data set with glucosamine-6-phosphate [3], the “self-cleavage kobs at 2500 uM GlcN6P” value was determined as 0.000613 ± 0.00014 s⁻¹.
With A33G G41U C50U C71U, the “self-cleavage kobs at 160 uM GlcN6P” value in the data set with glucosamine-6-phosphate [1] is less than 1e-05 s⁻¹. The “self-cleavage kobs at 640 uM GlcN6P” value in the data set with glucosamine-6-phosphate [2] is less than 1e-05 s⁻¹.
Consider C11U G44U G60A C61G, for which, in the data set with glucosamine-6-phosphate [1], the “self-cleavage kobs at 160 uM GlcN6P” value was less than 1e-05 s⁻¹. For the same variant, in the data set with glucosamine-6-phosphate [2], the “self-cleavage kobs at 640 uM GlcN6P” value was less than 1e-05 s⁻¹. The “self-cleavage kobs at 2500 uM GlcN6P” value with glucosamine-6-phosphate [3] was less than 1e-05 s⁻¹. In addition, the “self-cleavage kobs at 10000 uM GlcN6P” value with glucosamine-6-phosphate [4] was less than 1e-05 s⁻¹.
Turning to U47A C61U U69G, the “self-cleavage kobs at 640 uM GlcN6P” value with glucosamine-6-phosphate [2] came out at 0.00233 ± 0.0008 s⁻¹.
With C11A A14C G35A C50G C71G, the “self-cleavage kobs at 160 uM GlcN6P” value with glucosamine-6-phosphate [1] turned out to be 0.000211 ± 3.9e-05 s⁻¹. Moreover, the “self-cleavage kobs at 640 uM GlcN6P” value with glucosamine-6-phosphate [2] stood at 0.000433 ± 0.00014 s⁻¹. The “self-cleavage kobs at 2500 uM GlcN6P” value in the data set with glucosamine-6-phosphate [3] amounted to 0.000131 ± 4.3e-05 s⁻¹.
As for C8A C19A, the “self-cleavage kobs at 640 uM GlcN6P” value with glucosamine-6-phosphate [2] was less than 1e-05 s⁻¹. In addition, in the data set with glucosamine-6-phosphate [3], the “self-cleavage kobs at 2500 uM GlcN6P” value was less than 1e-05 s⁻¹.
With C10U G44A U57C G62A, the “self-cleavage kobs at 160 uM GlcN6P” value with glucosamine-6-phosphate [1] was less than 1e-05 s⁻¹. Also, the “self-cleavage kobs at 640 uM GlcN6P” value with glucosamine-6-phosphate [2] is less than 1e-05 s⁻¹.
Take C16U G35C A53U C58U: the “self-cleavage kobs at 640 uM GlcN6P” value with glucosamine-6-phosphate [2] is less than 1e-05 s⁻¹. In the data set with glucosamine-6-phosphate [3], the “self-cleavage kobs at 2500 uM GlcN6P” value was less than 1e-05 s⁻¹.
Turning to C11U C16U A64U C71G, the “self-cleavage kobs at 640 uM GlcN6P” value in the data set with glucosamine-6-phosphate [2] was 0.0021 ± 0.00087 s⁻¹.
As for A15G C16U A33U A39G, in the data set with glucosamine-6-phosphate [1], the “self-cleavage kobs at 160 uM GlcN6P” value was less than 1e-05 s⁻¹.
As for C10A C16G, in the data set with glucosamine-6-phosphate [1], the “self-cleavage kobs at 160 uM GlcN6P” value is less than 1e-05 s⁻¹. In the data set with glucosamine-6-phosphate [4], the “self-cleavage kobs at 10000 uM GlcN6P” value is less than 1e-05 s⁻¹.
As to G13C C16G G38A, in the data set with glucosamine-6-phosphate [1], the “self-cleavage kobs at 160 uM GlcN6P” value is less than 1e-05 s⁻¹.
Regarding G9U A15U A39U U69C, the “self-cleavage kobs at 160 uM GlcN6P” value with glucosamine-6-phosphate [1] was less than 1e-05 s⁻¹. Besides, the “self-cleavage kobs at 640 uM GlcN6P” value in the data set with glucosamine-6-phosphate [2] is less than 1e-05 s⁻¹.
Regarding A33U C34U C71G, the “self-cleavage kobs at 640 uM GlcN6P” value with glucosamine-6-phosphate [2] was less than 1e-05 s⁻¹.
On to G7A A39C U56G C68G, for which the “self-cleavage kobs at 640 uM GlcN6P” value with glucosamine-6-phosphate [2] was less than 1e-05 s⁻¹. Further, the “self-cleavage kobs at 2500 uM GlcN6P” value in the data set with glucosamine-6-phosphate [3] is less than 1e-05 s⁻¹.
For U45G G66A, in the data set with glucosamine-6-phosphate [1], the “self-cleavage kobs at 160 uM GlcN6P” value was determined as 0.0029 ± 0.00042 s⁻¹. Besides, in the data set with glucosamine-6-phosphate [2], the “self-cleavage kobs at 640 uM GlcN6P” value is 0.00605 ± 0.0014 s⁻¹. For the same variant, the “self-cleavage kobs at 2500 uM GlcN6P” value in the data set with glucosamine-6-phosphate [3] is 0.0257 ± 0.0093 s⁻¹.
Turning to G9A A14U, the “self-cleavage kobs at 640 uM GlcN6P” value with glucosamine-6-phosphate [2] was less than 1e-05 s⁻¹. The “self-cleavage kobs at 2500 uM GlcN6P” value with glucosamine-6-phosphate [3] is less than 1e-05 s⁻¹.
For the variant A12G A15G G29A G32C G37U, the “self-cleavage kobs at 160 uM GlcN6P” value with glucosamine-6-phosphate [1] was less than 1e-05 s⁻¹.
Take A33C U69C: the “self-cleavage kobs at 160 uM GlcN6P” value in the data set with glucosamine-6-phosphate [1] is less than 1e-05 s⁻¹. The “self-cleavage kobs at 640 uM GlcN6P” value with glucosamine-6-phosphate [2] is less than 1e-05 s⁻¹.
As to A39C G43C, the “self-cleavage kobs at 160 uM GlcN6P” value with glucosamine-6-phosphate [1] was less than 1e-05 s⁻¹. Also, the “self-cleavage kobs at 640 uM GlcN6P” value with glucosamine-6-phosphate [2] was less than 1e-05 s⁻¹. The “self-cleavage kobs at 10000 uM GlcN6P” value with glucosamine-6-phosphate [4] was less than 1e-05 s⁻¹.
For A33G G44U, the “self-cleavage kobs at 160 uM GlcN6P” value with glucosamine-6-phosphate [1] is less than 1e-05 s⁻¹. Further, in the data set with glucosamine-6-phosphate [2], the “self-cleavage kobs at 640 uM GlcN6P” value was less than 1e-05 s⁻¹. Besides, the “self-cleavage kobs at 10000 uM GlcN6P” value with glucosamine-6-phosphate [4] is less than 1e-05 s⁻¹.
On to A6G A36C G37U G40A C61A U65A, for which the “self-cleavage kobs at 640 uM GlcN6P” value with glucosamine-6-phosphate [2] was less than 1e-05 s⁻¹. For the same variant, in the data set with glucosamine-6-phosphate [3], the “self-cleavage kobs at 2500 uM GlcN6P” value was less than 1e-05 s⁻¹.
In the case of A6U U45A A48G, the “self-cleavage kobs at 160 uM GlcN6P” value with glucosamine-6-phosphate [1] is less than 1e-05 s⁻¹. Moreover, in the data set with glucosamine-6-phosphate [2], the “self-cleavage kobs at 640 uM GlcN6P” value is less than 1e-05 s⁻¹.
C11U A12C G13U G38U U56A C71U: the “self-cleavage kobs at 640 uM GlcN6P” value with glucosamine-6-phosphate [2] was less than 1e-05 s⁻¹. In the data set with glucosamine-6-phosphate [3], the “self-cleavage kobs at 2500 uM GlcN6P” value is less than 1e-05 s⁻¹.
Take C11G C70A: the “self-cleavage kobs at 640 uM GlcN6P” value with glucosamine-6-phosphate [2] is 3.62e-05 ± 1.5e-05 s⁻¹.
Regarding G29C G35A G41C G63U C68G, the “self-cleavage kobs at 640 uM GlcN6P” value with glucosamine-6-phosphate [2] was less than 1e-05 s⁻¹.
With G41C G44A C70G, the “self-cleavage kobs at 640 uM GlcN6P” value in the data set with glucosamine-6-phosphate [2] amounted to 0.00128 ± 0.00037 s⁻¹. For the same variant, the “self-cleavage kobs at 2500 uM GlcN6P” value with glucosamine-6-phosphate [3] came to 0.00311 ± 0.00077 s⁻¹.
The corresponding values for A52C G59A U65A are less than 1e-05 s⁻¹ and less than 1e-05 s⁻¹.
Regarding A12U U30A U45A A53U G62C, in the data set with glucosamine-6-phosphate [1], the “self-cleavage kobs at 160 uM GlcN6P” value was less than 1e-05 s⁻¹. In addition, the “self-cleavage kobs at 2500 uM GlcN6P” value in the data set with glucosamine-6-phosphate [3] is less than 1e-05 s⁻¹.
